# Measurements taken from the RNAGym collection of RNA variant scans (doi:10.1073/pnas.2313332121).
# This sample holds only a part of the variants without activity.
# B1: TPR 5TU (parent)
# chain: GGAUCUUCUCGAUCUAACAAAAAAGACAAAUCUGCCACAAAGCUUGAGAGCAUCUUCGGAUGCAGAGGCGGCAGCCUUCGGUGGCGCGAUAGCGCCAACGUUCUCAACUAUGACACGCAAAACGCGUGCUCCGUUGAAUGGAGUUUAUCAUG
# Variants of: B1
# Test: polymerase ribozyme fitness, log enrichment relative to wild type (log ratio); higher = more active; in vitro selection for triplet polymerase activity
# How it was run: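 Frozen incubation at −7 °C formed the core of a single, triplicate in vitro selection round applied to PCR-built, transcribed mutant libraries of each subunit of a heterodimeric triplet polymerase ribozyme. Extended constructs were gel-excised, captured with streptavidin beads and amplified by RT-PCR, and input and output libraries were Illumina-sequenced with a filter of ≥10 input reads and ≥1 read per output. Fitness is the logarithm of genotype enrichment relative to wild-type enrichment, with inverse-variance-weighted replicate averaging, and the logarithm is base 2.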
row,Variant,polymerase ribozyme fitness (log ratio)
1,GGAUCUUCUCGAGCUAACAAAAAAGACAAAUCUGCCACAAAGCUUGAGAGCAUCUAUGGAUGCAGAGGCGGCAGCCUUCGGUGGCGACUUAGCGCCAACGUUCUCAACUAUGACACGCAAUACGAGUGCUCCGUUGAAUGGAGUUUAACAUG,≤ -4.2
2,GGAUCUUCUCGAGCUAACAAAAAAGACAAAUCUGCCACAAAGCUUGAGAGCAUCUUCGGAUGCAGAGGCGGCAGCCUUCGGUGGCGCGAUAGGGCCAACGUUCUCAACUAUGACACGCAAAACGCGUGCUCCGUUGAAUGGAGUUUAUCAUG,-3.88
3,GGAUCUUCUCGAGCUAACAAAAAAGACAAAUCGGCCACAAAGCUUGAGAGCAUCUACGGUUGCAGAGGCGGCAGCCUUCGGUGGCGCGAUAGCGCCAACGUUCUCAACUAUGACACGCAAAACGCGUGCUCCGUUGAAUGGAUUUUAUCAUG,≤ -4.2
4,GGAUCUUCUCGAGCUAACAAAAAAGACAAAUCUGCCACAAAGCUUGAGAGCAUCUUCGGAUGCAGAGGCGGCAGCCUUCGGUGGCGGGAUAGCGCCAACGUUCUCAACUAUGACACGCAAAACGCGUGCUCCGUUGAAUGGAGUUUAUCAUG,≤ -4.2
5,GGAUCUUCUCGAGUUGACAAAAAAGACAAAUCUGCCACAAAGCUUGAGAGCAUCUUCGAAUGCAGAGGCGGCAGCCUUCGGUGGCGCGAGAGCGCCAACGUUCUCAACUAUGACACGCAAAACGCGUGCUCCGUUGAAUGGAGUUUAUCAUG,-4.01
6,GGAUCUUCUCGAGCUAACAAAAAAGACAAAUCUGCCACAAAGCUUAAGAGCAUCUUCGGAUGCAGAGGCGGCAGCCUUCGGUAGCGCGAUAGCGCCAACGAUCUCAACUAUGACACGCAAAACGCGUGCUCCGACGAAUGGAGUUUAUCAUG,≤ -4.2
7,GGAUCUUCUCGAGCUAACAAAAAAGACAAAUCUGCCACAAAGCUUGAGAGCAUCUUUGGAUGCAGAGGCGGCAGCCUUCGGUGGCGCGAUAGCGCGAACGUUCUCAACUAUGACACGCAAAACGCGUGCUCCGUUGAAUGGAGUUUAUCAUG,-1.66
8,GGAUCUUCUCGAGCUAACAAAAAAGACAAAUCUGCCACAAAGCUUGAGAGCAUCUUCGGAUGCAGAGGCGGCAGCCUUCGGUGGCGCGAUUGCGCCAACGUUCUCAACUAUGACACGCAAAACGCGUGCUCCGUUGAAUGGAGUUUAUCAUG,≤ -4.2
9,GGAUCUUCUCGAGCUAACAAAAAAGACAAAUCUGCCACAAAGCUUGAGAGCAUCUUCGGAUGCAGAGGCGGCAGGCUUCGGUGGCGCGAUAGCGCCAACGUUCUCAACUAUGACACGCAAAACGCGUGCUCCGUUGAAUGGAGUUUAUCAUG,≤ -4.2
10,GGAUCUUCUCGAGCUAACAAAAAAGACAAAUAUGCCACAAAGCUUGAGAGCAUCUUCGGAUGCAGAGGCGGCAGCCUUCGGUGGCCCGAUAGCGCCAACGUUCUCAGCUAUGACACGCAAAACGGGUGCUCCGUAGAAUGGAGUUUAUCAUG,≤ -4.2
11,GGAUCUUCUCGAGCUAACAAAAAAGACAAAUCUGCCACAAAGCUUGAGAGCAUCUUCGGAUGCAGAGGAGGCAGCCUUCGGUGGCGCGAUAGCGCCAACGUUCUCAACUAUGACACGCAAAACGCGUGCUCCGUUGAAUGGAGUUUAUCAUG,≤ -4.2
12,GGAUCUUCUCGAGCUAACAAAAAAGACAACUCUGCCACAAAGCUUGAGACCAUCUUCGGAUGCAGAGGCGGCAGCCUUCGGAGGCGCGAUAGCGCCAACGUUCUCAACUCUGACACGCAAAACGCGUGCUCCGUUUAAUGGAGUUUAUCAUG,≤ -4.2
13,GGAUCUUCUCGAGCUAACAAAAAAGACAAAUCUGCCACAAAGCUUGAGAUCAUCUUCGGAUGCAGAGGCGGCAGCCUUCGGUGGCGCGAUAGUGCCAACGUUCUCAACUAUGACACGCAAAACGCGUGCUCCGUUGAAUGGAGUUUAUCAUG,-3.9
14,GGAUCUUCUCGAGCUAACAAAAAAGACAAAUCUGCUACAAAGCUUGAGAGCGUCGUCGGAUGCAGAGGUGGCAGCGUUCGGUCGCGCGAUAGCGCCAACGUUCUCAACUAUGAUACGCAAAACGCGUGCUCCGUUGAAUGGAGUUUAUAAUG,≤ -4.2
15,GGAUCUUCUCGAGGUAACAUAAAAGACAAAUCUGCCGCAAAGCUUGCGUGCAUCUUCGGAUGCAGAGGCGGCAGCCUUCGGUGGCGCGAUAGCGCCAAUGUUCUCAACUAUGACACGCAAAACGCGUGCUCCGUUGAAUGGAGUUUAUUAUG,≤ -4.2
16,GGAUCUUCUCGAGCUAACAAAAAAGACAAAUCUGCCACAAAGCAUGAGAGCAUCUUCGGAUGCAGAGGCGGCAGCCUUCGGUGGCGCGAUAGCGCCAACGUUCUCAACUAUGACACGCAAAACCCGUGCUCCGUUGAAUGGAGGUUAUCAUG,≤ -4.2
17,GGAUCUUCUCGAGCUAACAAAAAAGACAAAUCUGCCACAAAGCUUGAGAGCAUCUUCGGAUGCAGAGGCGGCAGCCUUCGGUGGCGCGAUAGCGCCAACGUUCUCAACUAUGACACGCAAAACGCGUGCUCCGUUGUAUGGAGUUUAUCAUG,≤ -4.2
18,GGAUCUUCUCGAGCUAACAAAAAAGACAAAUCUGCCACAAAGCUUGAGAGCAUCUUCGGAUGCAGAGGCGGCAGCCUGCGGUGGCUCGAUAGCGCCAACGUUCUCAACUAUGACACGCAAAACGCGUGCUCCGUUGAAUAAAGUUUAUCAUG,≤ -4.2
19,GGAUCUUCUCGAGCUAACAAAAAAGACAAAUCUGCCACAAAGCUUGAGAGCAUCUUCGGAUGCAGAGGCGGCAGCCUUCGGUGGCUCGAUAGCGCCAACGUUCUCAACUAUGACACGCAAAACGCGUGCUCCGUUGAAUGGAGUUUAUCAUG,-3.56
